Ends that are not written are not given here.
Tests used:
[1] = Reverse phase C18 HPLC elution as measure of hydrophobicity; type: physicochemical; conditions: reverse phase C18, 30 min gradient from 99:1 A/B to 70:30 A/B, water/acetonitrile + 0.05% TFA, flow rate 1 ml/min
[2] = tested on: HeLa cells; experiment: HeLa proliferation assay; type: cell-based, Human; conditions: pH 6.0 and 7.4, treatment 3 hrs, data not shown
[3] = measured previously; ref [20]; cited from earlier work

| Substance | HPLC elution time of phallotoxins [1] [min] | Antiproliferative effect at either pH [2] | Log P of phalloidin-rhodamine [3] |
| --- | --- | --- | --- |
| phallacidin (AWLVDCP; also: cyclic peptide, R1 = H, R2 = COOH) | 30.3 | do not demonstrate an antiproliferative effect | – |
| phalloidin-rhodamine | – | – | -0.05 |
